Measurements taken from US20140248666A1 (Amgen, published 2014).

Columns and labels:
[1] = biological target: T1, human sclerostin, mature form (signal peptide removed) (human, UniProt Q9BQB4 24-213); test: Biacore cross-blocking, human sclerostin on CM5 chip; mixed with competitor Ab-13, each 1.3 uM binding sites
T1 construct: 190 amino acid glycoprotein with four disulfide bonds (C1-C5, C2-C6, C3-C7, C4-C8); also called SOST; recombinant human sclerostin
T1 sequence: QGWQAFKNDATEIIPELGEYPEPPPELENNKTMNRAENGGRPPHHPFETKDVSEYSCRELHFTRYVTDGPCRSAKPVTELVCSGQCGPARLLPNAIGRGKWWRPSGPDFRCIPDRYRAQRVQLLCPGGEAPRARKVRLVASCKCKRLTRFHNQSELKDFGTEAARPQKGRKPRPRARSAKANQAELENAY
Procedure: (§1) Human sclerostin was coupled to a CM5 Biacore chip using standard amine coupling chemistry to generate a sclerostin coated surface. 300 resonance units of sclerostin were coupled to the surface.
(§2) The antibodies to be tested were diluted to a concentration of 200 ug/ml in HBS-EP buffer (being 10 mM HEPES pH 7.4, 150 mM NaCl, 3 mM EDTA, 0.005% (v/v) Surfactant P20) and then mixed in a one to one molar ratio (on a binding site basis) to generate the test mixture. This test mixture thus contained each antibody at a concentration of 100 ug/ml (1.3 um on a binding site basis). Separate solutions containing each of the antibodies in the test mix alone were also prepared. These solutions contained the individual antibodies in HBS-EP buffer at a concentration of 100 ug/ml (1.3 um on a binding site basis).
(§3) 20 μL of the test mixture was passed over the sclerostin-coated chip at a flow rate of 10 μL/min and the amount of binding recorded. The chip was then treated with two 60 second pulses of 30 mM HCl to remove all of the bound antibody. A solution containing only one of the antibodies of the test mixture (at 1.3 μM in the same buffer as the test mixture on a binding site basis) was then passed over the chip in the same manner as the test mixture and the amount of binding recorded. The chip was again treated to remove all of the bound antibody and finally a solution containing the other antibody from the test mixture alone (at 1.3 μM in the same buffer as the test mixture on a binding site basis) was passed over the chip and the amount of binding recorded.

[2] = biological target: T1, human sclerostin, mature form (signal …); test: Biacore cross-blocking, human sclerostin on CM5 chip; mixed with competitor Ab-19, each 1.3 uM binding sites
Procedure: as §1, §2, §3

[3] = biological target: T1, human sclerostin, mature form (signal …); test: Biacore cross-blocking, human sclerostin on CM5 chip; mixed with competitor Ab-3, each 1.3 uM binding sites
Procedure: as §1, §3
(§4) The table below show the results from cross-blocking assays on a range of different antibodies. The values in each square of the table represent the amount of binding (in RU) seen when the antibodies (at 1.3 μM on a binding site basis) or buffer indicated in the top row of the table were mixed with the antibodies (at 1.3 uM on a binding site basis) or buffer indicated in the first column of the table.

[4] = biological target: T1, human sclerostin, mature form (signal …); test: Biacore cross-blocking, human sclerostin on CM5 chip; mixed with competitor Ab-A, each 1.3 uM binding sites
Procedure: as §1, §3, §4

[5] = biological target: T1, human sclerostin, mature form (signal …); test: Biacore cross-blocking on human sclerostin; mixture with competitor Ab-3, mean RU against the sum of each alone
Procedure: as §1, §2, §3

[6] = biological target: T1, human sclerostin, mature form (signal …); test: Biacore cross-blocking on human sclerostin; mixture with competitor Ab-19, mean RU against the sum of each alone
Procedure: as §1, §2, §3

[7] = biological target: T1, human sclerostin, mature form (signal …); test: KinExA solution equilibrium binding, human sclerostin-coated beads
Procedure: The affinity of several anti-sclerostin antibodies to human sclerostin was assessed by a solution equilibrium binding analysis using KinExA® 3000 (Sapidyne Instruments Inc., Boise, Id.). For these measurements, Reacti-Gel 6× beads (Pierce, Rockford, Ill.) were pre-coated with 40 μg/ml human sclerostin in 50 mM Na2CO3, pH 9.6 at 4° C. overnight. The beads were then blocked with 1 mg/ml BSA in 1M Tris-HCl, pH 7.5 at 4° C. for two hours. 10 pM, 30 pM, or 100 pM of the antibody was mixed with various concentrations of human sclerostin, ranging in concentration from 0.1 pM to 1 nM, and equilibrated at room temperature for over 8 hours in PBS with 0.1 mg/ml BSA and 0.005% P20. The mixtures were then passed over the human sclerostin coated beads. The amount of bead-bound anti-sclerostin antibody was quantified using fluorescent Cy5-labeled goat anti-mouse-IgG or fluorescent Cy5-labeled goat anti-human-IgG antibodies (Jackson Immuno Research, West Grove, Pa.) for the mouse or human antibody samples, respectively. The amount of fluorescent signal measured was proportional to the concentration of free anti-sclerostin antibody in each reaction mixture at equilibrium. The dissociation equilibrium constant (KD) was obtained from nonlinear regression of the competition curves using a n-curve one-site homogeneous binding model provided in the KinExA Pro software.

[8] = biological target: T1, human sclerostin, mature form (signal …); test: Biacore cross-blocking, human sclerostin on CM5 chip; mixed with competitor Ab-4, each 1.3 uM binding sites
Procedure: as §1, §3, §4

[9] = biological target: T1, human sclerostin, mature form (signal …); test: Biacore 3000; antibody captured by anti-human IgG Fc, sclerostin as analyte
Procedure: The assay format was capture of the anti-sclerostin antibody by immobilised anti-human IgG-Fc then titration of the sclerostin over the captured surface. An example of the procedure is given below: BIA (Biamolecular Interaction Analysis) was performed using a BIAcore 3000 (BIAcore AB). Affinipure F(ab′)₂ Fragment goat anti-human IgG, Fc fragment specific (Jackson
ImmunoResearch) was immobilised on a CM5 Sensor Chip via amine coupling chemistry to a capture level of ≈4000 response units (RUs). HBS-EP buffer (10 mM HEPES pH 7.4, 0.15 M NaCl, 3 mM EDTA, 0.005% Surfactant P20, BIAcore AB) containing 1 mg/mL CM-Dextran was used as the running buffer with a flow rate of 10 μl/min. A 10 μl injection of the anti-sclerostin antibody at ˜5 μg/mL was used for capture by the immobilised anti-human IgG-Fc. Antibody capture levels were typically 100-200 RU. Sclerostin was titrated over the captured anti-sclerostin antibody at various concentrations at a flow rate of 30 μL/min. The surface was regenerated by two 10 μL injections of 40 mM HCl, followed by a 5 μL injection of 5 mM NaOH at a flowrate of 10 μL/min.
Background subtraction binding curves were analysed using the BIAevaluation software (version 3.2) following standard procedures. Kinetic parameters were determined from the fitting algorithm.

Row | Binder | amount of binding (RU) [1] [RU] | amount of binding (RU) [2] [RU] | amount of binding (RU) [3] [RU] | amount of binding (RU) [4] [RU] | percentage of the theoretical binding [5] [%] | percentage of the theoretical binding [6] [%] | Kd [7] [pM] | amount of binding (RU) [8] [RU] | Kd [9] [pM] | koff [9] [s⁻¹] | kon [9] [M⁻¹ s⁻¹]
1 | Antibody 4 (antibody, mouse IgG1, kappa, V domains shown, Mature LC and HC; Parent of humanized Ab-5; also called Ab-4) VH: EVQLQQSGPELMKPGASVKMSCKASGYTFTDYNMHWVKQNQGKTLEWIGEINPNSGGAGYNQKFKGKATLTVDKSSTTAYMELRSLTSEDSAVYYCARLGYDDIYDDWYFDVWGAGTTVTVSS VL: DIQMTQITSSLSASLGDRVSISCRASQDISNYLNWYQQKPDGTFKLLIFYTSRLLSGVPSRFSGSGSGTDYSLTIYNLEQEDFATYFCQQGDTLPYTFGGGTKLEIKR | 1020 | 822 | 869 | 860 | 85.4 | 60.8 | 3 |  |  |  | 
2 | Antibody 23 (antibody, human IgG2, kappa, Humanized Ab-19, IgG2 version; Mature LC and HC; also called Ab-23) light: not shown heavy: EVQLVQSGAEVKKPGSSVKVSCKASGFTFTDYIMHWVRQAPGQGLEWMGYINPYNDDTEYNEKFKGRVTITADKSTSTAYMELSSLRSEDTAVYYCARSIYYYDAPFAYWGQGTLVTVSSASTKGPSVFPLAPCSRSTSESTAALGCLVKDYFPEPVTVSWNSGALTSGVHTFPAVLQSSGLYSLSSVVTVPSSNFGTQTYTCNVDHKPSNTKVDKTVERKCCVECPPCPAPPVAGPSVFLFPPKPKDTLMISRTPEVTCVVVDVSHEDPEVQFNWYVDGVEVHNAKTKPREEQFNSTFRVVSVLTVVHQDWLNGKEYKCKVSNKGLPAPIEKTISKTKGQPREPQVYTLPPSREEMTKNQVSLTCLVKGFYPSDIAVEWESNGQPENNYKTTPPMLDSDGSFFLYSKLTVDKSRWQQGNVFSCSVMHEALHNHYTQKSLSLSPGK |  |  |  |  |  |  | 4 |  |  |  | 
3 | Antibody 19 (antibody, V domains shown, the signal peptide is not part of the antibody as tested; Parent of humanized Ab-20 and Ab-23; also called Ab-19) VH: EVQLQQSGPELVKPGASVKMSCKASGFTFTDYIMHWVKQKPGQGLEWIGYINPYNDDTEYNEKFKGKATLTSDKSSSTAYMDLSSLTSEGSAVYYCARSIYYYDAPFAYWGQGTLVTVSS VL: DIQMTQTTSSLSASLGDRVNISCRASQDISSYLNWYQQKPDGTVKLLIYSTSRLNSGVPSRFSGSGSGTDYSLTISNLAQEDIATYFCQQDIKHPTFGGGTKLELKR | 1020 |  | 892 | 863 |  |  | 3 | 789 |  |  | 
4 | Antibody 14 (antibody, human IgG2, kappa, V domains shown, Humanized Ab-13; Mature LC and HC; also called Ab-14; Ab14) VH: EVQLVQSGAEVKKPGASVKVSCKASGYTFTDYYMNWVRQAPGQRLEWMGDINPYNDDTTYNHKFKGRVTITRDTSASTAYMELSSLRSEDTAVYYCARETAVITTNAMDYWGQGTTVTVSS VL: DIQLTQSPSFLSASVGDRVTITCRASSSVTSSYLNWYQQKPGKAPKLLIYSTSNLASGVPSRFSGSGSGTEFTLTISSLQPEDFATYYCQQYDFFPSTFGGGTKVEIKR |  |  |  |  |  |  | 1 |  | 1.48 | 4.87e-06 | 3.3e+06
5 | Antibody 5 (antibody, human IgG2, kappa, V domains shown, Humanized Ab-4; Mature LC and HC; also called Ab-5) VH: EVQLVQSGAEVKKPGASVKVSCKASGYTFTDYNMHWVRQAPGQGLEWMGEINPNSGGAGYNQKFKGRVTMTTDTSTSTAYMELRSLRSDDTAVYYCARLGYDDIYDDWYFDVWGQGTTVTVSS VL: DIQMTQSPSSLSASVGDRVTITCRASQDISNYLNWYQQKPGKAPKLLIYYTSRLLSGVPSRFSGSGSGTDFTLTISSLQPEDFATYYCQQGDTLPYTFGGGTKVEIKR |  |  |  |  |  |  | 6 |  | 97.8 | 0.000174 | 1.78e+06
6 | Antibody 13 (antibody, mouse IgG1, kappa, V domains shown, Mature LC and HC; Parent of humanized Ab-14; also called Ab-13) VH: EVQLQQSGPELVKPGASVKMSCKASGYTFTDYYMNWVKQSHGESLEWIGDINPYNDDTTYNHKFKGKATLTVDKSSNTAYMQLNSLTSEDSAVYYCARETAVITTNAMDYWGQGTSVTVSS VL: QIVLTQSPAIMSASPGEKVTMTCRASSSVTSSYLNWYQQKPGSSPKLWIYSTSNLASGVPARFSGSGSGTSYSLTISSVEAEDAATYYCQQYDFFPSTFGGGTKLEIKR |  | 1040 | 432 | 1110 | 58 | 97 | 0.6 | 1010 |  |  | 
7 | Antibody 3 (antibody, mouse IgG1, kappa, Mature LC and HC (signal peptide removed); Parent of humanized Ab-15; also called Ab-3) light: EIVLTQSPALMAASPGEKVTITCSVSSTISSNHLHWFQQKSDTSPKPWIYGTSNLASGVPVRFSGSGSGTSYSLTISSMEAEDAATYYCQQWSSYPLTFGAGTKLELRRADAAPTVSIFPPSSEQLTSGGASVVCFLNNFYPKDINVKWKIDGSERQNGVLNSWTDQDSKDSTYSMSSTLTLTKDEYERHNSYTCEATHKTSTSPIVKSFNRNEC heavy: EVQLQQSGAELVRPGALVKLSCTASDFNIKDFYLHWMRQRPEQGLDWIGRIDPENGDTLYDPKFQDKATLTTDTSSNTAYLQLSGLTSETTAVYYCSREADYFHDGTSYWYFDVWGAGTTITVSSAKTTPPSVYPLAPGSAAQTNSMVTLGCLVKGYFPEPVTVTWNSGSLSSGVHTFPAVLQSDLYTLSSSVTVPSSTWPSETVTCNVAHPASSTKVDKKIVPRDCGCKPCICTVPEVSSVFIFPPKPKDVLTITLTPKVTCVVVDISKDDPEVQFSWFVDDVEVHTAQTQPREEQFNSTFRSVSELPIMHQDWLNGKEFKCRVNSAAFPAPIEKTISKTKGRPKAPQVYTIPPPKEQMAKDKVSLTCMITDFFPEDITVEWQWNGQPAENYKNTQPIMDTDGSYFIYSKLNVQKSNWEAGNTFTCSVLHEGLHNHHTEKSLSHSPGK | 428 | 896 |  | 952 |  | 94.4 |  | 845 |  |  | 
